# US20140057807A1 (UNIVERSITY OF CHICAGO, published 2014)
# Target: T1, human serum albumin (human, UniProt P02768 25-609)
# T1 construct: also called HSA
# Test: cradle library selection hit
# T1 sequence (P02768 25-609 limits assumed): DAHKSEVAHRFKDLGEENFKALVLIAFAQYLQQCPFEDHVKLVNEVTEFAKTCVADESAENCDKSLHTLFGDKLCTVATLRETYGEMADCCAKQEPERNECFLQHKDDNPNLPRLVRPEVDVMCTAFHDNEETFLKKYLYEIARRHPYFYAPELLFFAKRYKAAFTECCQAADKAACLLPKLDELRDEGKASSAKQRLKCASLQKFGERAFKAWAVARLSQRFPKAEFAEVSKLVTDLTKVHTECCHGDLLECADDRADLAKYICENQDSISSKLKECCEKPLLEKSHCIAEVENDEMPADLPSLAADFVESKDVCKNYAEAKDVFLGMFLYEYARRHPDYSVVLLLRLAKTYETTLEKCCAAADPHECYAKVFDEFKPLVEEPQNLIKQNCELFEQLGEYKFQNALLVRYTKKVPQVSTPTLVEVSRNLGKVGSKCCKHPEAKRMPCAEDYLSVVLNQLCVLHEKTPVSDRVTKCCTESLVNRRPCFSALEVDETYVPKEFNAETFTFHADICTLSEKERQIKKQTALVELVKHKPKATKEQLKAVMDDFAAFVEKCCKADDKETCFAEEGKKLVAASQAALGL
row,binding result,Binder
1,binds,SEQ ID NO 188 (designed binder) PLSPPTNLHLEANPDTGVLTVSWERSTTPDITKYYILTSGYWGGGLEEVVHADQSSCTFDNLSPGLTYLVSVWTVTHYAGYPISDTIIP
2,binds,SEQ ID NO 167 (designed binder) PLSPPTNLHLEANPDTGVLTVSWERSTTPDVTTYSIYTYGYWDSHYMSLEEVVHADQSRCTFDNLSPGLYYSVEVYTVYYGLYVVPISDTIIP
3,binds,SEQ ID NO 175 (designed binder) PLSPPTNLHLEANPDTGVLTVSWERSTTPDITWYWINTSLANVRMSLEEVVHADQSGCTFDNLSPGLYYDVQVRTVSAAEGYPISDTIIP
4,binds,SEQ ID NO 192 (designed binder) PLSPPTNLHLEANPDTGVLTVSRERSTTPDITTYSIYTHSGALYVLEEVVHADQSSCTFDNPSPGLNYNVSVSTVHSRWRYGPISDTIIP
5,binds,SEQ ID NO 186 (designed binder) PLSPPTNLHLEANPDTGVLTVSWERSTTPDITGYSIATYLTYSNLVGLEEVVHADQSSCTFDNLSPGLSYKVSVYTVYGYSYGPISDTIIP
6,binds,SEQ ID NO 179 (designed binder) PLSPPTNLHLEANPDTGVLTVSWERSTTPDITMYDIKTIYYKAYYYGLEEVVHADQSSCTFDNLSPGLYYFVGVVTVERPRYYPISDTIIP
7,binds,SEQ ID NO 195 (designed binder) PLSPPTNPHLEANPDTGVLTVSWERSTTPDITTYWIGTYYSADERLEEVVHADQSSCTFDNLSPGLYYAVVVGTVGVWYRVAPISDTIIP
8,binds,SEQ ID NO 174 (designed binder) PLSPPTNLHLEANPDTGVLTVSWERSTTPDITDYNISTWLYTSVSVYTELEEVVHAGQSSCTFDNLSPGLAYVVYVWSTVWEHFYPSPISDTIIP
9,binds,SEQ ID NO 173 (designed binder) PLSPPTNLHLEANPDTGVLTVSWERSTTPDITMYAITTYEYSRAWQYLEEVVHADQSSCTFDNLSPGLTYYVEVYTVRYTWSDPISDTIIP
10,binds,SEQ ID NO 199 (designed binder) PLSPPTNLHLEANPDTGVLTVSWERSTTPDITAYVIYTYSESDGRVLEEVVHADQSSCTFDNLSPGLRYSVKVSTVYYSYAYPISDTIIP
11,binds,SEQ ID NO 189 (designed binder) PLSPPTNLHLEANPDTGVLTVSWERSTTPDITYYSITTSFYYSELEEVVHADQSSCTFDNLSPGLKYMVSVSTVSYSVGSPISDTIIP
12,binds,SEQ ID NO 198 (designed binder) PLSPPTNLHLEANPDTGVLTVSWERSTTPDITVYYIYTYTYNADLILEEVVHADQSSCTFDNLSPGLIYSVYVGTVASDDGRPISDTIIP
13,binds,SEQ ID NO 166 (designed binder) PLSPPTNLHLEANPDTGVLTVSWERSTTPDITWYWIGTWYSGYMVGLEEVVHADQSSCTFDNLSPGLTYWVLVGTVVRSPSRRPISDTIIP
14,binds,SEQ ID NO 194 (designed binder) PLSPPTNLHLEANPDTGVLTVSWERSTTPDITTYVIDTGAAVNYVLEEVVHADQSSCTFDNLSPGLQYSVDVVVTVWYSWYMPISDTIIP
15,binds,SEQ ID NO 191 (designed binder) PLSPPTNLHLEANPDTGVLTVSWERSTTPDITRYYIRTSYVRHGRLEEVVHADQSSCTFDNLSPGLYYNVSVSTVGYYYMLPISDTIIP
16,binds,SEQ ID NO 187 (designed binder) PLSPPTNLHLEANPDTGVLTVSWERSTTSDITKYYIATWFGDYGYSLEEVVHADQSSCTFDNLSPGLQYGVSVATVKGGQAHYPISDTIIP
17,binds,SEQ ID NO 202 (designed binder) VSDVPRDLEVVAATPTSLLISWDAPAVTVRYYYILYGDYNAYMDYAGQEFTVPGSKSTATISGLKPGVGYVEIDVYAVRTSEEQPISINYRT
18,binds,SEQ ID NO 178 (designed binder) PLSPPTNLHLEVNPDTGVLTVSWERSTTPGITQYDIATLSYGGRSGGLEEVVHADQSSCTFDNLSPGLSYVVSVSTVTSNEYSAPISDTIIP
19,binds,SEQ ID NO 196 (designed binder) PLSPPTNLHLEANPDTGVLTVSWERSTTPDITYYYIHTYYWKHWQSLEEVVHADQSSCTFDNLSPGLKYGVWVSTVYRVVYYPISDTIIP
20,binds,SEQ ID NO 163 (designed binder) SLSPPTNLHLEANPDTGVLTVGWERSTTPGITSYSIDTAKDDVPYLEEVVHADQSSCTFDNLSPGLNYTVVVATVGWSVDGPISDTIIP
21,binds,SEQ ID NO 165 (designed binder) PLSPPTNLHLEANPDTGVLTVSWERSTTPDITYYGIWTLTWLQYYSYRWGLEEAVHADQSSCTFDNLSPGLVYLVYVGTVRSPMARPISDTIIP
22,binds,SEQ ID NO 182 (designed binder) PLSPPANLRLEANPDTGVLTVSWERSTTPDITRYVIATGYGGSWYHLEEVVHADQSRCTFDNLSPGLAYYVDVYTVTPGEKHSPISDTIIP
23,binds,SEQ ID NO 161 (designed binder) PLSPPTNLHLEANPDTGVLTVSWERSTTRDITTYGIETEYDHSVGLEEVVHADQSSCTFDNLSPGLNYDVEVVTVGWGVYQRPISDTIIP

# Continued, binder first:
row,Binder,binding result
1,SEQ ID NO 184 (designed binder) PLSPPTNLHLEANPDTGVLTVSWERSTTPDITSYRISTEWRWRYTGLEEVVHADQSSCTFDNLSPGLIYGVGVSTVWKHNSQAPISDTIIP,binds
2,SEQ ID NO 172 (designed binder) PLSPPTNLHLEANPDTGVLTVSWERSTTPDITYYSIDTWTFGQWGLEEVVHADQSSCTFDNLSPGLYYYVEVVTVYEWAYSYPISDTIIP,binds
3,SEQ ID NO 164 (designed binder) PLSPPTNLHLEANPDTGVLTVSWERSTTPDITYYEINTTGYYGFYPGGLEEVVHADQSSCTFDNLSPGLYYQVTVQTVVYSMWYHPISDTIIP,binds
4,SEQ ID NO 193 (designed binder) PLSPPTNLHLEANPDTGVLTVSWERSTTPDITMYGIVTIYTRYYSLEEVVHADQSSCTFDNLSPGLIYWVYVLTVYYSWYRPISDTIIP,binds
5,SEQ ID NO 170 (designed binder) PLSPPTNLHLEANPDTGVLTVSWERSTTPDITNYLIQTDYFAFIKGVLEEVVHADQSSCTFDNLSPGLYYYVGVDTVSVPSHGPISDTIIP,binds
6,SEQ ID NO 181 (designed binder) PLSPPTNLHLEANPDTGVLTVSWERSTTPDITYYYIGTYQGTTYEHLEEVVHADQSSCTFDNLSPGLIYLVYVSTVYWDSMSSPISDTIIP,binds
7,SEQ ID NO 201 (designed binder) VSDVPRDLEVVAATPTSLLISWDAPAVTVRGYYISYYYHSTRDSQEFTVPGSKSTATISGLKPGVSYYVGVGAVWKKDYYFPISINYRT,binds
8,SEQ ID NO 183 (designed binder) PLSPPTNLHLEANPDTGVLTVSWERSTTPDITKYIISTYVDYGGYLEEVVHADQSSCTFDNLSPGLGYSVTVSTVSAGWDSPISDTIIP,binds
9,SEQ ID NO 171 (designed binder) PLSPPTNLHLEANPDTGVLTVSWERSTTPDITYYTIATADYTYSYAHLEEVVHADQSSCTFDNLSPGLNYEVGVGTVSVYSYIGPISDTIIP,binds
10,SEQ ID NO 176 (designed binder) PLSPPTNLHLEANPDTGVLTVSWERSTTPDITKYIIYTGYGASYDLEEVVHADQSSCTFDNLSPGLKYTVTVWTVSYASQVPISDTIIP,binds
11,SEQ ID NO 197 (designed binder) PLSPPTNLHLEASPDTGVLTVSWERSTTPDITTYLILTYLGYSRVLEEVVHADQSSCTFDNLSPGLWYMVYVDTVGRVPYIGPISDTIIP,binds
12,SEQ ID NO 180 (designed binder) PLSPPTNLHLEANPDTGVLTVSWERSTTPDITYYYIDTNGGYWSYLEEVVHADQSSCTFDNLSPGLGYPVGYVRTVYAGWLKGPISDTIIP,binds
13,SEQ ID NO 185 (designed binder) PLSPPTNLHLEANPDTGVLTVSWERSTTPDITMYYISTGGSSYKPDRLEEVVHADQSSCTFDNLSPGLDYMVYVRTVMYYNRSPISDTIIP,binds
14,SEQ ID NO 169 (designed binder) PLSPPTNLHLEANPDTGVLTVSWERSTTPDITDYYIITRSRWGYLEEVVHADQSSCTFDNLSPGLRYHVYVWTVGHYRDPISDTIIP,binds
15,SEQ ID NO 168 (designed binder) PLSPPTNLHLEANPDTGVLTVSWERSTTPDITTYGIETQTVEWVYYLEEVVHADQSSCTFDNLSPGLYYNVTVGTVMLDAAYPISDTIIP,binds
16,SEQ ID NO 177 (designed binder) PLSPPTNLHLEANPDTGVLTVSWERSTTPDITMYSIYTYDYTRNYVLEEAVHADQSSCTFDNLSPGLYGYYVGVGTVTGAGWHPISDTIIP,binds
